Data from paper doi:10.1101/215541, “DHX36 binding at G-rich sites in mRNA untranslated regions promotes translation”.

Target: T1, FH-DHX36 (RHAU, G4R1) (human (expressed in HEK293 T-REx Flp-In …, UniProt Q9H2U1 1-1008))
T1 sequence: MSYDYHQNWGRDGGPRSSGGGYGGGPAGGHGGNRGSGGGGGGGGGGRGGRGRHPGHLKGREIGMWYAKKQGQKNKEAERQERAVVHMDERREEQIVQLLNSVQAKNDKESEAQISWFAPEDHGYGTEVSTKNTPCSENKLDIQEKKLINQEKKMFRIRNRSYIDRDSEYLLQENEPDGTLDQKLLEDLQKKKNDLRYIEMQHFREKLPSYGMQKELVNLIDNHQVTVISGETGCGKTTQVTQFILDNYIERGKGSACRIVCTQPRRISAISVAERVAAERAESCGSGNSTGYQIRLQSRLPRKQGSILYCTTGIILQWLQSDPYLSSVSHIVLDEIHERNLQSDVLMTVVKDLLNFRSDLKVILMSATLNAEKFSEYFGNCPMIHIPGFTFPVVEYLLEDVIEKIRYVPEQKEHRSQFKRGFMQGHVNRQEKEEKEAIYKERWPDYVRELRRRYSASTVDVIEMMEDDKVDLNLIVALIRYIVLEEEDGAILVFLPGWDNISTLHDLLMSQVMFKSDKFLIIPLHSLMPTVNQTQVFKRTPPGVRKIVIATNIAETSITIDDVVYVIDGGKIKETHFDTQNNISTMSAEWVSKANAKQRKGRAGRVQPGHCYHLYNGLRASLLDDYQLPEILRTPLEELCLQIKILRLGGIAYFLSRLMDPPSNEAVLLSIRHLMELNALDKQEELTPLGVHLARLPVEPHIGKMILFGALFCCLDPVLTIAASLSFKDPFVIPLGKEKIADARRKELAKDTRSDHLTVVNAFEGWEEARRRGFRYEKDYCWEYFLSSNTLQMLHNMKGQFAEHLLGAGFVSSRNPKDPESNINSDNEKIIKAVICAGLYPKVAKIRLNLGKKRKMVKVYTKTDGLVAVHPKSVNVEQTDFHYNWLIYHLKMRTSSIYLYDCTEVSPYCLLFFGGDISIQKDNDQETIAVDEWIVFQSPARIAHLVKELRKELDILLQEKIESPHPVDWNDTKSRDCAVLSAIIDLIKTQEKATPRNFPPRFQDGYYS
Assay: MST; 25 nM oligonucleotide, DHX36 up to 50 nM; MST: 1x MST buffer (composition not stated), 0.5% BSA, 5 mM DTT; 25 nM Cy5 oligo (folding buffer for CD oligos: 10 mM Tris pH 7.5, 100 mM KCl, 1 mM EDTA); temperature not stated
Settings: protein: recombinant, tags: N-terminal FLAG-HA (pFRT-FlagHA vector), label: 5'-Cy5

## AAAAAGCAGCAGGAGCAGCA (ssDNA) [mutated DHX36 RRE for MST]
No G4 signature (CD on the longer A10 version)
  binding result: no binding

## AAAAAGGAGGAGGAGGAGGA (structured_DNA) [DHX36 RRE for MST (G-rich PAR-CLIP motif)]
Parallel G4 (CD on the longer A10 version)
  binding result: binds
